Reference: publication PMC10827179

Assays:
[1] = target: S. mutans CLC^F F-/H+ antiporter encoded by ORF 1289 (SMU.1289) (Streptococcus mutans UA159); assay: cross-linking
[2] = target: S. mutans CLC^F homologue encoded by ORF 1290 (SMU.1290) (Streptococcus mutans UA159); assay: cross-linking

In the case of “S. mutans CLC^F F-/H+ antiporter encoded by ORF 1289 (SMU.1289) (natural protein)”, the stoichiometry N [1] is reported as 2.

Work on “S. mutans CLC^F homologue encoded by ORF 1290 (SMU.1290) (natural protein)” yielded a stoichiometry N [2] of 2.
